Assay [1] addresses human MC4 receptor (human) (UniProt P32245). In words: cell-based or functional assay.
Assay [2] has as its target human MC1 receptor (human) (UniProt Q01726). Description: SPA competition binding, displacement of 125I-NDP-α-MSH, BHK membranes with human MC1R.
The target in assay [3] is human MC4 receptor (human) (UniProt P32245). In words: SPA competition binding, displacement of 125I-NDP-α-MSH, BHK membranes with human MC4R. (In general: Displacement assays read how much labelled ligand stays bound in the presence of the test substance.)
Chain of human MC4 receptor (human) (P32245 whole entry): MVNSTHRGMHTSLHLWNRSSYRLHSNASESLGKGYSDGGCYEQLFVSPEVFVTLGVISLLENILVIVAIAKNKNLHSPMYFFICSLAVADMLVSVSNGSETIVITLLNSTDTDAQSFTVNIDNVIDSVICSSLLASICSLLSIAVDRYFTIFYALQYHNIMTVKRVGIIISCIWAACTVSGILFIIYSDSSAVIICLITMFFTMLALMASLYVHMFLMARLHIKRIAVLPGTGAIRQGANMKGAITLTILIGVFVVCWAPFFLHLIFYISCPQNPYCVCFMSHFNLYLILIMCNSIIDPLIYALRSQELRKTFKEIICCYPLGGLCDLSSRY
In assay [4] the target is human MC1 receptor (human) (UniProt Q01726). Description: cell-based or functional assay.
Chain of human MC1 receptor (human) (Q01726 whole entry): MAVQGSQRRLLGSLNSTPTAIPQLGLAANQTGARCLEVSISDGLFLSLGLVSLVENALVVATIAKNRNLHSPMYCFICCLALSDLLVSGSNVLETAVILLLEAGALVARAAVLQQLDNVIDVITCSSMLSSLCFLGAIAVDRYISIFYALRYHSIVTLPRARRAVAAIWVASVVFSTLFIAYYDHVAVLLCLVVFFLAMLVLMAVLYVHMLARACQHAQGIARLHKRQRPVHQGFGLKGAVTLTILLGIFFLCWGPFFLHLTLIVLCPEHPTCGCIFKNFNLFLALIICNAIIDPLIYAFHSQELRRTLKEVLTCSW

In patent US20210221867A1, “Compounds Capable of Binding to Melanocortin 4 Receptor” (Novo Nordisk A/S, priority 2018, published 2021) one finds MC4R cAMP EC50, IC50 and MC1R cAMP EC50 data, which are given here for 3 molecules.

Positions of bridges follow the written chain, without caps; N, C: chain ends. Non-standard residues stand in square brackets, D forms with d. Nle = CCCC[C@H](N)C(=O)O

B1: Ac-c[Cys-Pro-His-D-Phe-His-Trp-Cys]-Pro-Pro-D-Arg-Glu-Nle-D-Arg-D-Arg-D-Arg-NH2 (peptide)
peptide: Ac-CPH[dF]HWCPP[dR]E[Nle][dR][dR][dR]-NH2
modifications: disulfide 1-7
SMILES: CCCC[C@H](NC(=O)[C@H](CCC(=O)O)NC(=O)[C@@H](CCCNC(=N)N)NC(=O)[C@@H]1CCCN1C(=O)[C@@H]1CCCN1C(=O)[C@@H]1CSSC[C@H](NC(C)=O)C(=O)N2CCC[C@H]2C(=O)N[C@@H](Cc2c[nH]cn2)C(=O)N[C@H](Cc2ccccc2)C(=O)N[C@@H](Cc2c[nH]cn2)C(=O)N[C@@H](Cc2c[nH]c3ccccc23)C(=O)N1)C(=O)N[C@H](CCCNC(=N)N)C(=O)N[C@H](CCCNC(=N)N)C(=O)N[C@H](CCCNC(=N)N)C(N)=O
The IC50 is the midpoint of a concentration-inhibition curve. Low values mean greater potency, high ones weaker potency. In the case of B1, the MC4R cAMP EC50 in assay [1] stood at 0.16 nM. The results for the IC50 in assay [2] and in assay [3] were 138 nM and 0.27 nM, respectively.

B2: Ac-D-Arg-c[Cys-Pro-His-D-Phe-His-Trp-Cys]-Pro-Pro-D-Arg-Glu-Nle-D-Arg-D-Arg-NH2 (peptide)
peptide: Ac-[dR]CPH[dF]HWCPP[dR]E[Nle][dR][dR]-NH2
modifications: disulfide 2-8
SMILES: CCCC[C@H](NC(=O)[C@H](CCC(=O)O)NC(=O)[C@@H](CCCNC(=N)N)NC(=O)[C@@H]1CCCN1C(=O)[C@@H]1CCCN1C(=O)[C@@H]1CSSC[C@H](NC(=O)[C@@H](CCCNC(=N)N)NC(C)=O)C(=O)N2CCC[C@H]2C(=O)N[C@@H](Cc2c[nH]cn2)C(=O)N[C@H](Cc2ccccc2)C(=O)N[C@@H](Cc2c[nH]cn2)C(=O)N[C@@H](Cc2c[nH]c3ccccc23)C(=O)N1)C(=O)N[C@H](CCCNC(=N)N)C(=O)N[C@H](CCCNC(=N)N)C(N)=O
In assay [4], B2 registered an MC1R cAMP EC50 of 126 nM. Also, the MC4R cAMP EC50 in assay [1] amounted to 0.32 nM. Further, the IC50 worked out at 44.1 nM in assay [2] and 0.35 nM in assay [3].

B3: Ac-D-Arg-c[Cys-Pro-His-D-Phe-His-Trp-Cys]-Pro-Pro-D-Arg-D-Arg-NH2 (peptide)
peptide: Ac-[dR]CPH[dF]HWCPP[dR][dR]-NH2
modifications: disulfide 2-8
SMILES: CC(=O)N[C@H](CCCNC(=N)N)C(=O)N[C@H]1CSSC[C@@H](C(=O)N2CCC[C@H]2C(=O)N2CCC[C@H]2C(=O)N[C@H](CCCNC(=N)N)C(=O)N[C@H](CCCNC(=N)N)C(N)=O)NC(=O)[C@H](Cc2c[nH]c3ccccc23)NC(=O)[C@H](Cc2c[nH]cn2)NC(=O)[C@@H](Cc2ccccc2)NC(=O)[C@H](Cc2c[nH]cn2)NC(=O)[C@@H]2CCCN2C1=O
With B3, the MC1R cAMP EC50 in assay [4] is 179 nM. In assay [1], this molecule registered an MC4R cAMP EC50 of 0.19 nM. For the same molecule, the IC50 came to 69 nM in assay [2] and 0.39 nM in assay [3].
